Results published in paper PMC10299379.

Key:
[1] = molecular target: EBV LMP2A-N (latent membrane protein 2A, N-terminal domain, amino acids 1-119) (Epstein-Barr virus) (UniProt P13285); assay: SPR; Biacore T200; LMP1-C and LMP2A-N immobilised on sensor chip CM5 as ligands; affibody molecules injected as analytes in serial dilutions; 1:1 Langmuir fit
[2] = molecular target: EBV LMP1-C (latent membrane protein 1, C-terminal domain, amino acids 186-387) (Epstein-Barr virus) (UniProt P03230); assay: as above
UniProt P03230, sequence (P03230 186-386): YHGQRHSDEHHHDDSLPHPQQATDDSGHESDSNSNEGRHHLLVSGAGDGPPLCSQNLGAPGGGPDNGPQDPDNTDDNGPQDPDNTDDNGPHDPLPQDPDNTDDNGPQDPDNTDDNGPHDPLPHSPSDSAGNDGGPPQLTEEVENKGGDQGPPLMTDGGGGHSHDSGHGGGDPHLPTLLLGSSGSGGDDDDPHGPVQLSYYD

UniProt P13285, sequence (P13285 1-119): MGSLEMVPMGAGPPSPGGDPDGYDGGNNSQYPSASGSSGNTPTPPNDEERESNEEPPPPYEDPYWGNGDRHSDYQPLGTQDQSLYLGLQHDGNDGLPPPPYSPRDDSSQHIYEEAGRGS

“SPA-Z scaffold (ZWT) (domain or fragment)” was tested. Which koff [1] did it give?
Its koff is 5.97e-05 s⁻¹.

And the koff [2]?
Its koff is 0.00246 s⁻¹.
